In the supplement of paper PMC10567573:

B1: FAM164C (parent)
chain: YPHCTGISQQDPESDSQGQGNGLF

Variants of: B1
Experiment: protein stability index of a GFP-peptide fusion (GPS, HEK-293T) (PSI 1-6); higher = more stable
Conditions: c terminus: a fixed tail appended
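Further: lentivirally expressed fusions sorted by FACS into six bins by GFP to DsRed ratio, PSI derived from sequencing read proportions per bin multiplied by bin number.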

Point of comparison: YPHCTGISQQDPESDSSGQGNGLF [Q17S], protein stability index 3.79. Against it:
- YPHCTGISQQCPESDSQGQGNGLF [D11C] — lower, 3.15
- YPHCTGISQQIPESDSQGQGNGLF [D11I] — lower, 3.1
- YPHCTGISQQQPESDSQGQGNGLF [D11Q] — lower, 3.73
- YPHCTGISQQSPESDSQGQGNGLF [D11S] — lower, 3.58
- YPHCTGISQQRPESDSQGQGNGLF [D11R] — lower, 3.29
- YPHCTGISQQNPESDSQGQGNGLF [D11N] — lower, 3.62
- YPHCTGISQQTPESDSQGQGNGLF [D11T] — lower, 3.17
- YPHCTGISQQVPESDSQGQGNGLF [D11V] — lower, 3.5
- YPHCTGISQQDPESDSQGKGNGLF [Q19K] — higher, 3.85
- YPHCTGISQQDPESDSQGTGNGLF [Q19T] — higher, 3.81
- YPHCTGISQQDPESDSQGVGNGLF [Q19V] — lower, 3.52
- YPHCTGISQQDPESDSQGSGNGLF [Q19S] — higher, 3.9
- YPHCTGISQQDPESDSQGAGNGLF [Q19A] — higher, 3.87
- YPHCTGISQQDPESDSQGDGNGLF [Q19D] — higher, 4.1
- YPHCTGISQQDPESDSQGRGNGLF [Q19R] — lower, 3.51
- YPHCTGIAQQDPESDSQGQGNGLF [S8A] — lower, 3.51
- YPHCTGIQQQDPESDSQGQGNGLF [S8Q] — higher, 3.95
- YPHCTGIRQQDPESDSQGQGNGLF [S8R] — lower, 3.57
- YPHCTGIFQQDPESDSQGQGNGLF [S8F] — lower, 2.69
- YPHCTGIKQQDPESDSQGQGNGLF [S8K] — higher, 4.15
- YPHCTGIWQQDPESDSQGQGNGLF [S8W] — lower, 1.84
- YPHCTGIEQQDPESDSQGQGNGLF [S8E] — higher, 4.17
- YPHCTGILQQDPESDSQGQGNGLF [S8L] — lower, 3.35
- YPHCTGIVQQDPESDSQGQGNGLF [S8V] — lower, 3.73
- YPHCHGISQQDPESDSQGQGNGLF [T5H] — lower, 3.2
- YPHCIGISQQDPESDSQGQGNGLF [T5I] — lower, 3.34
- YPHCVGISQQDPESDSQGQGNGLF [T5V] — lower, 3.18
- YPHCRGISQQDPESDSQGQGNGLF [T5R] — lower, 2.71
- YPHCNGISQQDPESDSQGQGNGLF [T5N] — lower, 3.32
- YPHCYGISQQDPESDSQGQGNGLF [T5Y] — lower, 3.17
- YPHCPGISQQDPESDSQGQGNGLF [T5P] — lower, 3.25
- YPHCTGISQQDPESDHQGQGNGLF [S16H] — lower, 3.78
- YPHCTGISQQDPESDWQGQGNGLF [S16W] — lower, 2.76
- YPHCTGISQQDPESDGQGQGNGLF [S16G] — lower, 3.71
- YPHCTGISQQDPESDFQGQGNGLF [S16F] — lower, 3.13
- YPHCTGISQQDPESWSQGQGNGLF [D15W] — lower, 2.63
- YPHCTGISQQDPESMSQGQGNGLF [D15M] — lower, 2.9
- YPHCTGISQQDPESRSQGQGNGLF [D15R] — lower, 3.54
- YPHCTGISQQDPESCSQGQGNGLF [D15C] — lower, 2.79
- YPHCTGISQQDPESESQGQGNGLF [D15E] — higher, 4.07
- YPHCTGISQQDPESGSQGQGNGLF [D15G] — lower, 2.94
- YPHCTGISQQDPESASQGQGNGLF [D15A] — lower, 3.53
- RPHCTGISQQDPESDSQGQGNGLF [Y1R] — higher, 4.63
- NPHCTGISQQDPESDSQGQGNGLF [Y1N] — higher, 5.28
- LPHCTGISQQDPESDSQGQGNGLF [Y1L] — higher, 5.44
- CPHCTGISQQDPESDSQGQGNGLF [Y1C] — higher, 4.29
- MPHCTGISQQDPESDSQGQGNGLF [Y1M] — higher, 5.4
- VPHCTGISQQDPESDSQGQGNGLF [Y1V] — higher, 5.07
- GPHCTGISQQDPESDSQGQGNGLF [Y1G] — higher, 5.44
- EPHCTGISQQDPESDSQGQGNGLF [Y1E] — higher, 5.25
- YPHCTGISQQDPESDSQGQGNGLE [F24E] — higher, 5
- YPHCTGISQQDPESDSQGQGNGLV [F24V] — higher, 4.41
- YPHCTGISQQDPESDSQGQGNGLC [F24C] — higher, 4.73
- YPHCTGISQQDPESDSQGQGNGLR [F24R] — higher, 5.01
- YPHCTGISQQDPESDSQGQGNGLW [F24W] — lower, 2.23
- YPHCTGISQQDPESDSQGQGNGLT [F24T] — higher, 5.13
- YPHCTGISQQDPESDSQGQGNGLP [F24P] — higher, 4.64
- YPHCTGISQQDPESDSQGQGNGLQ [F24Q] — higher, 5
- YPHCTGISQQDPESDSQGQGNGLG [F24G] — higher, 4.82
- YPHCTGISQQDPESDSQGQGNGMF [L23M] — higher, 4.21
- YPHCTGISQQDPESDSQGQGNGKF [L23K] — higher, 4.76
- YPHCTGISQQDPESDSQGQGNGCF [L23C] — higher, 4.62
- YPHCTGISQQDPESDSQGQGNGYF [L23Y] — higher, 4.26
- YPHCTGISQQDPESDSQGQGNGGF [L23G] — higher, 4.99
- YPHCTGISQQDPESDSQGQGNGVF [L23V] — higher, 3.87
- YPHCTGISQQDPESDSQGQGNGNF [L23N] — higher, 4.38
- YPHCTGISQQDPESDSQGQGNGIF [L23I] — higher, 3.97
- YPHCTGISQQDPESDSQGQGNGEF [L23E] — higher, 5.27
- YPHCTGISQQDPESDSQGQGNGDF [L23D] — higher, 4.93
- YPHCTPISQQDPESDSQGQGNGLF [G6P] — lower, 2.25
- YPHCTLISQQDPESDSQGQGNGLF [G6L] — lower, 3.25
- YPHCTIISQQDPESDSQGQGNGLF [G6I] — lower, 3.25
- YPHCTFISQQDPESDSQGQGNGLF [G6F] — lower, 3.01
- YPHCTWISQQDPESDSQGQGNGLF [G6W] — lower, 2.87
- YPHCTMISQQDPESDSQGQGNGLF [G6M] — lower, 3.34
- YPHCTGISIQDPESDSQGQGNGLF [Q9I] — lower, 3.71
- YPHCTGISCQDPESDSQGQGNGLF [Q9C] — lower, 3.43
- YPHCTGISMQDPESDSQGQGNGLF [Q9M] — lower, 3.49
- YPHCTGISVQDPESDSQGQGNGLF [Q9V] — lower, 3.19
- YPHCTGISGQDPESDSQGQGNGLF [Q9G] — higher, 3.85
- YPHCTGISSQDPESDSQGQGNGLF [Q9S] — higher, 3.97
- YPHCTGISPQDPESDSQGQGNGLF [Q9P] — lower, 3.67
- YPHCTGISAQDPESDSQGQGNGLF [Q9A] — higher, 4.06
- YWHCTGISQQDPESDSQGQGNGLF [P2W] — lower, 3.67
- YGHCTGISQQDPESDSQGQGNGLF [P2G] — higher, 4.47
- YMHCTGISQQDPESDSQGQGNGLF [P2M] — higher, 4.07
- YHHCTGISQQDPESDSQGQGNGLF [P2H] — lower, 2.9
- YRHCTGISQQDPESDSQGQGNGLF [P2R] — higher, 4.71
- YQHCTGISQQDPESDSQGQGNGLF [P2Q] — lower, 3.58
- YFHCTGISQQDPESDSQGQGNGLF [P2F] — higher, 3.86
- YSHCTGISQQDPESDSQGQGNGLF [P2S] — higher, 4.65
- YDHCTGISQQDPESDSQGQGNGLF [P2D] — higher, 5.09
- YPHCTGISQQDPESDSCGQGNGLF [Q17C] — lower, 3.39
